The target of data set [1] is T1, human CD73 ECD (Homo sapiens, UniProt P21589).
T1 construct: made in house; host or cells: mammalian cells
T1 sequence (P21589 27-549 limits assumed): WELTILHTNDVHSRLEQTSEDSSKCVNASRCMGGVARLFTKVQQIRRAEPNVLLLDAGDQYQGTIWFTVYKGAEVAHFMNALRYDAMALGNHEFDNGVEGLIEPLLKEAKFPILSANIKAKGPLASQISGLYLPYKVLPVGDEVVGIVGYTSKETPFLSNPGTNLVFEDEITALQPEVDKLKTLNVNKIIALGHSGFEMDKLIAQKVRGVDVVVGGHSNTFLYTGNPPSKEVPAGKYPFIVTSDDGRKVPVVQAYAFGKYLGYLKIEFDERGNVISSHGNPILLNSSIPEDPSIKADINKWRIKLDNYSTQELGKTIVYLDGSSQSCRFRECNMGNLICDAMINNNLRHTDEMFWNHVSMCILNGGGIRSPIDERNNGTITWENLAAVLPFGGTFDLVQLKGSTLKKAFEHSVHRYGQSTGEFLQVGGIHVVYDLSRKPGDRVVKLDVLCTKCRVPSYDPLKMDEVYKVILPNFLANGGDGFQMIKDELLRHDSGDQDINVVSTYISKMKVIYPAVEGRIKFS
Put plainly: Surface plasmon resonance (ProteOn), human CD73. The data set is classed as binding. The following applies: SPR. The method, then:
A ProteOn XPR36 instrument was used to characterize binding of MEDI9447 to human, murine, and cynomolgus CD73 ECD. MEDI9447 was affinity-captured using an anti-human Fc antibody. CD73 ECD was in the mobile phase. The association and dissociation of CD73 to MEDI9447 could be accurately described with the Langmuir 1:1 model.
The affinity of enhanced anti-CD73 antibodies (in IgG1-TM format) to human, murine, and cynomolgus CD73 was determined by flow cytometry and surface plasmon resonsance (SPR) (Table 13). The enhanced antibodies had pM affinity to cellular and recombinant CD73 from the three species.
A general note: In SPR one partner is held on a chip, and binding of the other changes the refractive index at the surface.

Data set [2] has as its target T2, surface-expressed CD73, NCI-H322 cells (Homo sapiens, UniProt P21589).
T2 construct: In a cell-based assay of surface-expressed CD73; endogenous in cells; host or cells: NCI-H322
T2 sequence (P21589 27-549): T1 sequence (P21589 27-549 limits assumed)
Put plainly: Cell-based inhibition of 5′ ectonucleotidase (CD73-catalyzed hydrolysis of AMP). Particulars: CD73-expressing NSCLC cells, 200 μM AMP, 24 hours. On the procedure: In this study, the functional activity of MEDI9447 was determined in an in vitro assay that measured the CD73-catalyzed hydrolysis of AMP using a human non-small cell carcinoma cell line, NCI-H322. Formulation of MEDI9447 was prepared by diluting its stock solution in serum-free RPMI medium to a final concentration of 1 μM. Formulation of R347 was prepared by diluting its stock solution in RPMI to a final concentration of 1 μM.
NCI-H322 cells were centrifuged for 5 minutes at 1500 rpm. The supernatant was removed and replaced with serum-free RPMI medium. The cell suspension was counted using the VI-CELL (Beckman, Coulter) cell counter. The cells were plated into 96-well plates at a cell density of 10,000 cells per 100 μLs per well. […], of 4× concentrated AMP (200 μM) was added. […] Cellular enzyme inhibition of 5′ ectonucleotidase was measured on a multilabel reader, the Perkin-Elmer Envision Workstation. The samples were analyzed using Prism Software.
The results depicted in FIG. 3 were obtained using CD73-expressing NSCLC cells that were plated into 96-well non-tissue culture treated plates (Falcon 3788) at 10,000 cells per well in 100 μL of RPMI medium without additives. […] CELLTITER-GLO® reagent (Promega) was added 1:1 and cellular CD73 enzyme AMP phosphorylase activity was determined by measuring ATP levels using the Envision luminescence plate reader (Perkin Elmer). […]

Data set [3] concerns CT26 murine syngeneic tumors. Put plainly: CT26 syngeneic tumor model, MEDI9447 monotherapy. The data set is classed as in vivo, Balb/C mice. The method, then:
CT26 cells, which are derived from a murine colon cancer, were established by subcutaneous (SC) injection of 5×10^5 cells suspended in 0.1 mL of PBS into the right flanks of 4-to-6-week-old female mice. The mice were treated with MEDI9447 or with a control antibody.
10 mice per group were used in this study. Animals were randomly assigned into groups. Animals in Group 1 were untreated and Group 2 was administered an isotype control. MEDI9447 was administered to Group 3. Test articles were administered intraperitoneally twice weekly starting on Day 3. On Day 16, 5 animals from each group were necropsied and tumors were isolated.
Tumors were measured on Days 1, 7, 9, 12, 14, and 16 by caliper, and the volumes of tumors were calculated as follows: […] (1) The anticancer effects of MEDI9447 were expressed as percent tumor growth inhibition, which was calculated as follows: (Average tumor volume for MEDI9447/Average tumor volume for R347-TM)×100 (2)
Tumors were isolated for flow cytometry. Tumors were dissected from CT26 tumor-bearing mice on study Day 16. Tumors were cut into small pieces and were digested with collagenase. […] Dissociated cells were pelleted at 1000 rpm for 5 minutes at 4° C. and were re-suspended in fluorescence-activated cell sorting (FACS) buffer. Cells were counted on Vi-Cell using the default setting. […]

The target in data set [4] is T3, huCD73 (Homo sapiens, UniProt P21589).
T3 sequence (P21589 27-549): T1 sequence (P21589 27-549 limits assumed)
The data set is described as follows: Solution binding, human CD73. Particulars: as measured by solution binding.

In data set [5] the target is cynomolgus CD73. The data set is described as follows: Solution binding, cynomolgus CD73. The following applies: as measured by solution binding.

In turn, “MEDI9447: IgG1 with CD730010-derived VL of SEQ ID NO: 68 and VH of SEQ ID NO: 82” yielded a kd in data set [1] (Human CD73 ECD) of 1.06e-05 s⁻¹. Further, the ka in data set [1] (antibody captured, Human CD73 ECD in mobile phase) amounted to 2.57e+06 M⁻¹ s⁻¹. Moreover, the “conversion of adenosine monophosphate to adenosine” value in data set [2] is given as “reduced in a dose-dependent manner”. Also, the tumor growth result in data set [3] (CT26, Balb/C mice, 10 mg/kg IP 2X weekly) is on record as “inhibited tumor growth”. The “proportion of tumor-infiltrating MDSCs” value in data set [3] (CT26 tumors harvested study Day 16, flow cytometry) was “reduced”. In addition, the Kd (commonly a measure of binding affinity in units of concentration) was ~0.08 nM in data set [4] and ~0.09 nM in data set [5].

For the origin of these results see patent US10864269B2, “Therapeutic combinations comprising anti-CD73 antibodies and uses thereof” (MedImmune Limited, priority 2014, dated 2020).
